# T1: LSD2 (Homo sapiens, UniProt Q8NB78)
# T1 construct: 0.15 μM or 1.2 μM purified LSD2 (residues 51-822); His6 (cleaved yes); made in house; host or cells: Sf9 insect cells (baculovirus)
# T1 sequence (Q8NB78 51-822): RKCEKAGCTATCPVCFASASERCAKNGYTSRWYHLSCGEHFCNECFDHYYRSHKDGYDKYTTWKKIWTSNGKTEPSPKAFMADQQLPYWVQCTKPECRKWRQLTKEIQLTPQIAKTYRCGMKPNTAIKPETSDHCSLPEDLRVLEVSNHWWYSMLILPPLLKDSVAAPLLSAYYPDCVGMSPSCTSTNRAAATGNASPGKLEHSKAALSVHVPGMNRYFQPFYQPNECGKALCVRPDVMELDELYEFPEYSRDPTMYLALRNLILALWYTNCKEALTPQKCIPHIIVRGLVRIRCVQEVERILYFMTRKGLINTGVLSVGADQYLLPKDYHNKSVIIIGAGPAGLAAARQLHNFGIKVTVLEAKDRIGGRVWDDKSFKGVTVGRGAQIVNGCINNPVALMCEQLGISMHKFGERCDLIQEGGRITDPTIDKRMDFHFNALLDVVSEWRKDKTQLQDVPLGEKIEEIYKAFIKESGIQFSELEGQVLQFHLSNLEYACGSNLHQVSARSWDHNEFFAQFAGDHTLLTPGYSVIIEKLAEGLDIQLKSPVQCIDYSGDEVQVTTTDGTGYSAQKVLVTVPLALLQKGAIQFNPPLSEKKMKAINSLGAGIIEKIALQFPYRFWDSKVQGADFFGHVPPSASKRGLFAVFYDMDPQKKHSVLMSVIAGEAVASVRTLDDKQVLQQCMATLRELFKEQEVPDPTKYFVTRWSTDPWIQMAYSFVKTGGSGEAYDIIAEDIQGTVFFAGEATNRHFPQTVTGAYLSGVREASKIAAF
# Tests used:
# [1] = biological target: T1, LSD2; test: H3K4me2 peptide demethylation assay (MALDI-TOF); assay type: biochemical; details: shorter H3K4me2 peptide residues 1-15
# Procedure: FIGS. 12A-12F depict analysis of LSD2 demethylation activity and mutational analysis. […] Demethylation products were analyzed by MALDI-TOF mass spectrometry. 0.15 μM LSD2 can efficiently demethylate the longer H3K4me2 peptide (1-21), but has no detectable activity on the shorter histone peptide (1-15), demethylation of which requires high concentration (1.2 μM) of LSD2. […] It indicates the importance of histone residue 16-21 to LSD2 enzymatic activity and NPAC cofactor activity, supporting our model that NPAC assists enzyme-substrate interactions by creating a new binding site for H3 L20 in the LSD2-NPAC complex. FIG. 12C depicts LSD2 demethylation and NPAC cofactor activity on longer H3K4me2 peptide (1-44). 2 μg H3K4me2 peptide (1-44) were incubated with 0.8 μg GST-LSD2 (1-822) and 2 μg wild-type or F217A full-length GST-NPAC proteins in 100 μl demethylation buffer (50 mM Tris-HCl pH 8.1, 1 mM NAD^+, 0.1 Unit formaldehyde dehydrogenase) at 30° C. for 2 hours. LSD2 alone can efficiently demethylate di-methyl H3K4 of the long peptides, converting large majority of the substrate to H3K4me1. Wild-type NPAC protein can efficiently stimulate LSD2 demethylation, producing unmethylated H3K4. F217A mutation impairs NPAC cofactor activity as expected, showing little stimulatory effect if any. To compare demethylation efficiency, 1.2 μg bio-H3K4me2 peptide (H3 residue 1-21, equal molar ratio to 2 ug H3K4me2 1-44 peptide in above assays) was demethylated by LSD2 under identical conditions (bottom panel). […] The cofactor activity of wild-type NPAC was readily detected under the same conditions. […] Importantly, the demethylation of nucleosomal H3K4me2 was much more efficient in the presence of wild-type NPAC under same conditions (comparing lane 3 verse 4, and 8 verse 9). It is noted that no obvious cofactor effect of F217A peptide or linker regions was detected in nucleosome and peptide demethylation assays (FIG. 6E and data not shown). FIG. 12F depicts Coomassie staining of NPAC proteins used in histone demethylase assays. FIG. 12F discloses “His6” as SEQ ID NO: 75.
# Histone peptides are purchased from Millipore, or custom synthesized. The purity of all peptides are >95% as determined by HPLC and mass spectrometry. In vitro histone demethylase activity assays were performed as described (Shi et al., 2004). Briefly, purified LSD2 and NPAC derived peptides or proteins were incubated with 50 μM H3K4me2 peptides (residues 1-21) in 50 mM Tris-HCl, pH 8.5, 50 mM KCl, 5 mM MgCl2, 5% glycerol at 37° C. for 30 min. The products were desalted through a C18 Ziptip (Millipore) and analyzed on a MALDI-TOF micro MX mass spectrometer (ABI 4700, Applied Biosystems). The laser intensity was kept constant for all of the samples. All MS data were processed using Data Explorer 4.5 (Applied Biosystems). […]
# [2] = system: nucleosomes purified from HeLa; test: Nucleosome pulldown by GST-NPAC proteins; assay type: binding
# Procedure: Nucleosomes were purified from HeLa as previously described (Umlauf et al., 2004). To examine nucleosome binding selectivity of NPAC, 5 μg GST fusion protein bound to glutathione agarose were incubated with 20 μg nucleosomes overnight at 4° C. in nucleosome binding buffer (50 mM NaPO4 pH 7.4, 200 mM NaCl, 0.5% NP-40, 5% glycerol, 10 μM ZnSO4, 1 mM MgCl2, 1 mM DTT, 0.1 mM PMSF). After washing 4 times with the same buffer at 4° C., the beads were boiled in 1×SDS sample loading buffer and elute was resolved by 15% SDS-PAGE for immunoblot analysis or coomassie staining.
# For free-DNA competition assays, human genomic DNA was purified from HeLa cells and fragmented to an average size around 300 bp by sonication. Equal amounts of GST-NPAC.d5 bound to glutathione beads were pre-incubated with 0, 5, 10, 25 μg genomic DNA fragments in nucleosome binding buffer for 30 minutes at room temperature, and equal amounts of nucleosomes were added and incubated overnight at 4° C. After extensive washing, GST-NPAC.d5 and bound nucleosomes were eluted by boiling in 1×SDS sample loading buffer, resolved by SDS-PAGE and stained with coomassie blue.
# [3] = biological target: LSD1 (Homo sapiens, UniProt O60341); test: LSD1-mediated nucleosome demethylation assay; assay type: biochemical; details: 2 μg LSD1 with 5 μg cofactor protein
# Procedure: FIG. 7A depicts the determination of the threshold dosage of purified LSD2 required for nucleosomal H3K4 demethylation. 2 μg of nucleosomes purified from HeLa were incubated with various amount of His-LSD2 proteins for 2 hours at 30° C. The demethylation reactions were analyzed by immunoblotting using indicated antibodies. […] 2 μg LSD1 in combination with 5 μg purified NPAC or CoREST protein was used for histone demethylase assays. […] Transfected cells are marked by arrows; cells shown significant reduction of H3K4me1 are marked by dotted circles. […] In contrast, coexpression of LSD2 and NPAC induces obvious global decrease of H3K4me1. […] FIG. 7D depicts immunofluorescence analyses of H3K9me2 demethylation in cells coexpressing LSD2 and full-length NPAC.
molecule,measurement,setting,value
"NPAC: full-length human NPAC/GLYR1 (protein ID: Q49A26), recombinant, LSD2 cofactor (protein) MAAVSLRLGDLVWGKLGRYPPWPGKIVNPPKDLKKPRGKKCFFVKFFGTEDHAWIKVEQLKPYHAHKEEMIKINKGKRFQQAVDAVEEFLRRAKGKDQTSSHNSSDDKNRRNSSEERSRPNSGDEKRKLSLSEGKVKKNMGEGKKRVSSGSSERGSKSPLKRAQEQSPRKRGRPPKDEKDLTIPESSTVKGMMAGPMAAFKWQPTASEPVKDADPHFHHFLLSQTEKPAVCYQAITKKLKICEEETGSTSIQAADSTAVNGSITPTDKKIGFLGLGLMGSGIVSNLLKMGHTVTVWNRTAEKCDLFIQEGARLGRTPAEVVSTCDITFACVSDPKAAKDLVLGPSGVLQGIRPGKCYVDMSTVDADTVTELAQVIVSRGGRFLEAPVSGNQQLSNDGMLVILAAGDRGLYEDCSSCFQAMGKTSFFLGEVGNAAKMMLIVNMVQGSFMATIAEGLTLAHVTGQSQQTLLDILNQGQLASIFLDQKCQNILQGNFKPDFYLKYIQKDLRLAIALGDAVNHPTPMAAAANEVYKRAKALDQSDNDMSAVYRAYIH",Cofactor activity: stimulation of LSD2 demethylation of H3K4me2 peptide,[1],did not detect NPAC cofactor activity
same,Nucleosome binding (GST-pulldown),[2],binds strongly with purified nucleosomes
same,Stimulation of LSD1 nucleosome demethylation,[3],no stimulatory effect on nucleosome demethylation by LSD1

# — US9745384B2, “Peptides useful for modulating histone demethylase function” (The Brigham and Women's Hospital, Inc., priority 2012, dated 2017)
